Reference: the nanobody polyreactivity screen of Harvey et al. (2022)

assay: yeast display, Sf9 membrane polyspecificity reagent, FACS + sequencing; frameworks hold sequencing errors
How it was run: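 Using colony PCR, genes from sorted yeast display clones were amplified, then sequenced on MiSeq at 2 × 250 and filtered by CDR length. The clones had been stained with 10% biotinylated, detergent-solubilized Sf9 membrane reagent for 1 hour at 4 °C and sorted by FACS into low and high (top ~1%) gates on anti-HA and streptavidin fluorescence. Polyreactivity labels come from the gate of origin.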

Sequence	polyreactivity (PSR sort gate)
QVQLVESGGGLVQAGGSLRLSCAASGRTFYTNAMGRYRQAPGKERELVAAISRGGGRTYYADSVKGRFTISRDNAKNTVYLQMNSLKPEDTAVYYCAASPYQGQGREYYYWGQGTQVTVSS	high polyreactivity
QVQLVESGGGLVQAGGSLRLSCAASGRIFIWYAMGWYRQAPGKERELVAAIDRSGASTYYADSVKGRFTISRDNAKNTVYLQMNSLKPEDTAVYYCAARRDVLWFQYPYGYWGQGTQVTVSS	low polyreactivity
QVQIVESGGGLVQAGGSLRLTCAASGSILWYNTMGWYRQAPGKERELVAAIRTSGSRTYYADSVKGRFTISRDNAKNTVYVQMNSLKPEDTAVYYCAAERGSQRVRSGYWGQGTQVTVSS	high polyreactivity
QVQLVESGGRIVQAGGSLRLSCAASGFIYSKYAMGWSRPAPGKEGQLVAAISSSGGYTYYADSVKGRFTISRDNAKNTVYLQMNSLKPEATAVYYCNADYLFYAFDYWGHGTQVTVSS	low polyreactivity
QVQLVESGGGLVQAGGSLRLSCAASGGTFTAYAMGWYIQAPGKERELVAAISASGDSTYYADSVKGRFTISRDIAKNTVYLQMNSLKPEDTAVYYCNADWYRTGRRGSDYWGQGTQVTVSS	low polyreactivity
QVQLVQSGGGLVQAGGSLRLSCAASGRTFYYNAMGWYRQAPGKERELVAAITSTGGSTYYADSVKGRFTISRDNAKNTVYLQMNSLKPEDTAVYYCNTLGYTQTRGLDYWGQGTQVTVSS	low polyreactivity
QVQLVESGGGLFQEGGSLRISCAPSGSTFGGYVMGWYRQAPGKDRELVAAIRRVGRTYYADSVKGRFTISRDNAKNTVYLQINSLKAEVTAVYYFAADWAGWEGYRMDYWGQGTQVTVSS	low polyreactivity
QVQLVESGGGLVHAGGSLRLSCAASGRTFTLYAMGWYRQAPGKERELVAAITRTGRTTYADSVKGRFTISRDNAKNTVYLQMNSLKPEDTAVYYCAAEVEYTSASIVYYEYEYWGQGTQVTVSS	high polyreactivity
QDQLVESGGGLVQEGGSLRLICAASGRTLQSYAMGGYRQAPGKERELVAAISGGASTYADSVKGRFTISRDNAKNTVYLQMNSLKPEDTAVYYCAADDDPVPTYEYDYWGQGTQVTVSS	low polyreactivity
QVQLVESGGGLVQAGGSLRLSCTASGNTFALYAMGWYRQAPGKERELVARISRRGGSTYYADSVKGRFTISRDNAKNTVYLQMNSLKPEDTAVYYCAKTHSYYPWEVNYWGQGTQVTVSS	high polyreactivity
QVQLVESGRGLVQAGGSLRLSCAASGRIFYYYAMGWYRKAPRKERELVAANTETGGNTYYADSVKGRFTISRDNAKNTVYLQMNSLKPEDTAVYYCARKGRRTHHYGLYSSSVYYWGQGTQVTVSS	low polyreactivity
QVQLVESGGGLVQAGGSLRLSCAASGRTFWQYSMGWYRQAPGKERELVAAITSSGGSTYYADSVKGRFTISRDNAKNTVYLQMNSLKPEDTAVYYCAADTRYYRYYYWGQGTQVTVSS	high polyreactivity
QVQHVESGGGLVQAGGSLRLSCAASGFTFNLYAMGWYRQAPGKERELVAAINWSGGTYYADSVKGRFTISRDNAKNTVYLQMNSLKPEYTAVYYCAADFPYTPWSYHHHVWSPDFDYWGQGTQVTVSS	low polyreactivity
QVQLVESGGGLVQAGGSLRLSCAASGITFRYYAMGWYRQAPGKERELVAAITGNGGGTYADSVKGRFTISRDNAKNTVYLQMNSLKPEVTAVYYCAADEPGLSWYDSYRYPDYGYDYWGQGTQVTVSS	low polyreactivity
QVQLVESGAGLVQAGGSLRISCAASGRIFHYALGWYRQAPGKERELVAGISKRGGSTYYADSVKGRFTISRDNAKNTVYLQMNSLKPEDTAVYYCAAGRAYDGTKHDYWGQGTQVTVSS	high polyreactivity
QVQLVESGGGLVQAGGSLRLSCAASGRIFGWYAMGWYRQAPGKERELVAAISRGGTTYYADSVKGRFTISRDNAKNTVYLQMNSLKPEDTAVYYCAAPVPYYVPRRNEGDYWGQGTQVTVSS	low polyreactivity
QVQLVESGGGLVQAGGSLRLSCAASGFIFHRNAMGWYRPAPGKERELVASITKRGGNTYYADSVKGRFTISRDNAKNTVYLQMNSLKPEDTAVYYCATQLWGWDWKRDYWGQGTQVTVSS	high polyreactivity
QVQLVESGGGLVQAGGSLRLSCAASGRNFRYYAMGWYRPAPGKERELVAAISGSGGSTYYADSVKGRFTISRDNAKNTVYLQMNSLKPEDTAVYYCNARYRIPSGEGDHWGQGTQVTVSS	low polyreactivity
QVQLVESGGGLVQAGGSLRLSCAASGLTFHPYDMGWYRQAPGKERELVAAISSRGTSTYYADSVKGRFTISRDNAKNTVYLQMNSLKPEDTAVYYCAARHGPRAEAMYYWGQGSQVTVSS	high polyreactivity
QVQLVESGGGLVQAGGSLRISCAASGRTFARNSMGWYRQAPGKERELVATITIGGRTYYADSVKGRFTISRDNAMNTVYLQMNSLKPEDTAVYYCAKRISGYRGDYWGQGTQVTVSS	high polyreactivity
QVQLVESGGGLVQAGGSLRLSCAASGRTFWNYAMGWYRQAPGKERELVAVIRFSDGSTYYADSVKGRFTISRDNAKNTGYLQMISLKPEDTAVFYCAAKGPRRWGSGFDYWGQGTQVTVSS	low polyreactivity
QVQLVESGGGLVQAGGSLRLSCAASGLIFYRYAMGRYRQAPRKERELVAAISSSGGSTYYADSVKGRFTISRDNAKNTVYLQMNSLKPEDTAVYYCSARPSTHGYKYGYWGQGTQVTVSS	high polyreactivity
QVQLVESGGGLVKAGGSLRLSCAASGSIFGSYAMGWYRQAPGKERSTYYADSVKGRFTISRDNAKNTVYLQMNSLKPEDTAVYYRAADTYGYQGSAGGHWGLGTQVTVSS	low polyreactivity
QVQLVESGGGLVQAGGSLRLSCAASGLTFQYNAMGWYRQAPGKERELVASINSGGSTDYADSVKGRFTISRDNAKNTVYLQMNRLKQEDTAVYYCATSGYWYSASYGYEYWGQGTQVTLSS	low polyreactivity
QEQLQESGGGLVQAGGSLCLSCAASGTIFFDGDMGWYRQAPGKEREFVAAINPGGSAYYADSVKGRLPLAAITHTVYLQMNSLKPEDTAVYYCAAKLFDVYGYYYWGQGTHVTVSS	low polyreactivity
QDQLVESVGGLVQAGGSLRLSCAASASTFGSNAMGWYRQAPGKDREFVAAISRRGGSTYYADSVKGRFTFSRDNAKNTVYLQMNSLKPEDTAVYYCAADYISLREEHYWGHGTQVTVSS	high polyreactivity
QVQLVESGGGLVQAGGSLRLSCAASGYIFSTYDMGWYRQAPGKERELVATISSSGGSTYYADSVKGRFTISRDIAKNTVYLQMNSLKPEDTAVYYCAADLYLYQYRYEYDYWGQGTQVTVSS	high polyreactivity
QVQLVESGGGLVQAGGSLRLSCAASGFIFRRNAMGWYRQAPGKERELVAAITKSGGSTYYADSVKGRFTISRDNAKNTVYLQMNSLKPEDTAVYYCAASDASGGGYWGQGTQVTVSS	high polyreactivity
QGQLVESGGGLVQAGGSLRLSCAAAGYTLGVNAMGWSRQAPGKERELVAAINYIDTRTYYAASVKGRFTISRDNAKNTVYLQMNSLNPEDTAVYYCAARPYVPWVKRYYYWGQGTQVTVSS	low polyreactivity
QVQLVESGGGLVQAGGSLRLSCAASGSILKFNAMGWNRQAPGKERELVAAITRGTNTYYADSVKGRFTISRDNAKNTVYLQMNTLKPEDTAVYYCAARLPYNAIGYYYWGQGTQVTVSS	low polyreactivity
